Test results as given in the Human Domainome abundance scans (Beltran et al. 2025).
± gives the uncertainty stated by the source.

Assay: abundance fitness (aPCA) (normalised: wild type 0, dead -1); higher = more abundant; growth selection in yeast, the domain comes from the species named
Settings: Homo sapiens

Substance | abundance fitness
Scaffold attachment factor B1 G70R, Q15424 | -0.196 ± 0.053
Scaffold attachment factor B1 G70S, Q15424 | -0.197 ± 0.057
Scaffold attachment factor B1 G70T, Q15424 | -0.408 ± 0.092
Scaffold attachment factor B1 G70W, Q15424 | -0.474 ± 0.055
Scaffold attachment factor B1 G70Y, Q15424 | -0.483 ± 0.1
Scaffold attachment factor B1 I37C, Q15424 | -0.281 ± 0.072
Scaffold attachment factor B1 I37D, Q15424 | -0.175 ± 0.075
Scaffold attachment factor B1 I37G, Q15424 | -0.028 ± 0.05
Scaffold attachment factor B1 I37H, Q15424 | -0.186 ± 0.085
Scaffold attachment factor B1 I37K, Q15424 | -0.103 ± 0.076
Scaffold attachment factor B1 I37L, Q15424 | -0.124 ± 0.056
Scaffold attachment factor B1 I37M, Q15424 | -0.057 ± 0.061
Scaffold attachment factor B1 I37N, Q15424 | -0.25 ± 0.078
Scaffold attachment factor B1 I37R, Q15424 | -0.04 ± 0.054
Scaffold attachment factor B1 I37S, Q15424 | -0.17 ± 0.054
Scaffold attachment factor B1 I37V, Q15424 | -0.15 ± 0.06
Scaffold attachment factor B1 I37Y, Q15424 | -0.231 ± 0.059
Scaffold attachment factor B1 I65A, Q15424 | -0.596 ± 0.069
Scaffold attachment factor B1 I65C, Q15424 | -0.141 ± 0.087
Scaffold attachment factor B1 I65D, Q15424 | -0.706 ± 0.077
Scaffold attachment factor B1 I65E, Q15424 | -0.497 ± 0.085
Scaffold attachment factor B1 I65F, Q15424 | -0.466 ± 0.099
Scaffold attachment factor B1 I65G, Q15424 | -0.564 ± 0.057
Scaffold attachment factor B1 I65H, Q15424 | -0.917 ± 0.14
Scaffold attachment factor B1 I65K, Q15424 | -0.434 ± 0.061
Scaffold attachment factor B1 I65L, Q15424 | -0.143 ± 0.049
Scaffold attachment factor B1 I65M, Q15424 | -0.312 ± 0.069

Substance | abundance fitness
Scaffold attachment factor B1 I65N, Q15424 | -0.598 ± 0.089
Scaffold attachment factor B1 I65P, Q15424 | -0.559 ± 0.051
Scaffold attachment factor B1 I65R, Q15424 | -0.287 ± 0.045
Scaffold attachment factor B1 I65S, Q15424 | -0.577 ± 0.058
Scaffold attachment factor B1 I65W, Q15424 | -0.457 ± 0.051
Scaffold attachment factor B1 I65Y, Q15424 | -0.535 ± 0.14
Scaffold attachment factor B1 I75A, Q15424 | -0.304 ± 0.071
Scaffold attachment factor B1 I75C, Q15424 | -0.28 ± 0.086
Scaffold attachment factor B1 I75D, Q15424 | -0.449 ± 0.11
Scaffold attachment factor B1 I75E, Q15424 | -0.459 ± 0.09
Scaffold attachment factor B1 I75F, Q15424 | -0.371 ± 0.095
Scaffold attachment factor B1 I75G, Q15424 | -0.264 ± 0.057
Scaffold attachment factor B1 I75H, Q15424 | -0.543 ± 0.13
Scaffold attachment factor B1 I75K, Q15424 | -0.253 ± 0.06
Scaffold attachment factor B1 I75L, Q15424 | -0.099 ± 0.054
Scaffold attachment factor B1 I75M, Q15424 | -0.19 ± 0.065
Scaffold attachment factor B1 I75N, Q15424 | -0.219 ± 0.058
Scaffold attachment factor B1 I75P, Q15424 | -0.31 ± 0.084
Scaffold attachment factor B1 I75Q, Q15424 | -0.311 ± 0.071
Scaffold attachment factor B1 I75R, Q15424 | -0.285 ± 0.057
Scaffold attachment factor B1 I75S, Q15424 | -0.257 ± 0.056
Scaffold attachment factor B1 I75T, Q15424 | -0.194 ± 0.064
Scaffold attachment factor B1 I75V, Q15424 | -0.113 ± 0.049
Scaffold attachment factor B1 I77A, Q15424 | -0.157 ± 0.062
Scaffold attachment factor B1 I77C, Q15424 | -0.187 ± 0.061
Scaffold attachment factor B1 I77D, Q15424 | -0.212 ± 0.071
Scaffold attachment factor B1 I77E, Q15424 | -0.102 ± 0.092

Substance | abundance fitness
Scaffold attachment factor B1 I77F, Q15424 | -0.076 ± 0.058
Scaffold attachment factor B1 I77G, Q15424 | -0.195 ± 0.064
Scaffold attachment factor B1 I77H, Q15424 | -0.163 ± 0.056
Scaffold attachment factor B1 I77K, Q15424 | -0.136 ± 0.073
Scaffold attachment factor B1 I77L, Q15424 | -0.227 ± 0.064
Scaffold attachment factor B1 I77M, Q15424 | -0.305 ± 0.087
Scaffold attachment factor B1 I77N, Q15424 | -0.235 ± 0.073
Scaffold attachment factor B1 I77P, Q15424 | -0.381 ± 0.096
Scaffold attachment factor B1 I77Q, Q15424 | -0.262 ± 0.077
Scaffold attachment factor B1 I77R, Q15424 | -0.156 ± 0.055
Scaffold attachment factor B1 I77S, Q15424 | -0.08 ± 0.051
Scaffold attachment factor B1 I77V, Q15424 | -0.163 ± 0.066
Scaffold attachment factor B1 I77W, Q15424 | -0.119 ± 0.053
Scaffold attachment factor B1 K45A, Q15424 | -0.013 ± 0.27
Scaffold attachment factor B1 K45R, Q15424 | 0.218 ± 0.2
Scaffold attachment factor B1 K45V, Q15424 | -0.929 ± 0.46
Scaffold attachment factor B1 K54A, Q15424 | -0.181 ± 0.061
Scaffold attachment factor B1 K54C, Q15424 | -0.361 ± 0.063
Scaffold attachment factor B1 K54D, Q15424 | -0.329 ± 0.075
Scaffold attachment factor B1 K54E, Q15424 | -0.207 ± 0.079
Scaffold attachment factor B1 K54F, Q15424 | -0.249 ± 0.062
Scaffold attachment factor B1 K54G, Q15424 | -0.234 ± 0.05
Scaffold attachment factor B1 K54H, Q15424 | -0.401 ± 0.11
Scaffold attachment factor B1 K54I, Q15424 | -0.271 ± 0.077
Scaffold attachment factor B1 K54L, Q15424 | -0.28 ± 0.048
